Assay results published in the NTF2 design screens of Basanta et al. (2020).

Test: protease stability score; higher = more stable; yeast display proteolysis, trypsin and chymotrypsin;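 note: relative to predicted unfolded state with 0 unfolded-like and 1 meaning tenfold more protease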

Row | Sequence | protease stability score
1 | SEDEEFAEKYLKEWVERVRTGDEDHLWKLLDPDPRIRIDGKEIIGREIAVKHMSEIRPTSIRLTSFHSQGDKINVDGETDGEFNGVRQRQRVIYIILKVDGRWLLHSVEFK | 1.05
2 | SEDEEFAKHASEIMSRILETGNEEETNRMMDPNVRLDWNGQDHVGREDVLRFRKLIIEILGIERIKVELHDVKTVNGRVHTDIIVNINGQEYRLRVFMTKVNGRWHVKFMEFE | 1.7
3 | SEDEEFAKRFFEILVHYHKTGDWEKRMKMADPNTRSDINGVHFHGREDIYRFEDELWREMGIDHVEFHVRDSDIQGDKLHLHTQVIIHVGNKHIELDERMILLKFNGQWVLESLEVK | 1.32
4 | SEDEEFARTAVELVSEAWETGDENLEEHLLDPNVKIDIGDKELHGMESSIKYWREIRIHLLHVEIHSVEFFDGRVILDTRFKFDGDFDGKRIERSSTMIWIAHKVDGRWRVHHMENR | 1.25
5 | SEDEEFFKKALDLVFEYNRTGDERSMNELADPHVKVDINGVTLHGWEEFSRHLRELRLKTFKLDDLDSQGDKIITKGVFHHHINGRTIDLDVIIFTRKINGRWVLEKVEFK | 1.35
6 | SEDEEFLEWTMRLYTKAHATGDEETLTDLMDPNTRLDINGVIWIGREFVRKHHEDLGAKHSRMDLRIRDRDSINGRLIVHTRFRLKIHIGDKDISIEHHTTLYMIKIDGRWHIREIEIR | 1.09
7 | SEDEEFMRHKSELYLEMLKTGDEEELERLFDPNVRLHIGDKNQHGREQFSHFFSKLHKELGVDHLSFEHIHLEVVNGRLIIIMRVHLHVGDKVHDREISIDASKVDGQWLVQSVHIHVR | 0.121
8 | SEDEEFSKEATETILRVIHTGDWDMIKDLADPNARIHVGNYNSWGREEVMRVIRELFEVLGIKHLIFTHVEIDVIDGVVHSIIHGYEEVGDKTIETHIDIVSKKIDGRWRLQRIEIHHR | 1.29
9 | SEDEEHAEFFNRLLAESLMTGDWRTIANLLDPHVRVRVGDKQHHGREQVIHLLTKLLEDWGLERVHIHLRELRVINGRIHTRNELHVGDKTVDVKVHTRKIDGRWVIEEIEFR | 1.16
10 | SEDEEHAELALRLWEIVEKTGDETEARKMFDPHTRIIIDGRDLIGWSFIRHLMRRFDHVDIDHKREKRREFQGEKVRMDIEVDMEFVVGEKIYRIDFRVNIVLLKVNGKWRIHSLEIK | 2.47
11 | SEDEEHAERMLRILIELLLTGNESDFLRYADPNVRTIVGDKTFHGRDEFRTAWEWFLREIRLRHIELKHVEIQGNKVRVHGIWNIEINGRHIRLHVLIEIVVVDGVLRETRFEIR | 1.47
12 | SEDEEHAREFIKILFELLLTGDFKARLERLDPHTRLDVDGKDVHGMENINDLWLRIVEKYKNIQIHFHIHDVSIIGDKIHLHVHVEINVNGVNLRHEELTIVQKFNGKWIIKERHYI | 1.38
13 | SEDEEHARKLVEELLHIMITGDFHRIRELADPHARIVVGDKVFHGREMMFRFSRELRVHDHRLRHEEYINGVVHIEGHVDGEINGRRHRTEVRIHIVVIDGRVKTMEIRWD | 1.35
14 | SEDEEHARRFRELWLRIFHTGDWHEFHKLLDPNVRTQVGEFHDIGRESAAEHLELFLKQLGVDHTDITHVELIYIGDKVEVNILLRKEQGDKEYTFRIHIVVRKVNGQWLIKSIHITVE | 1.54
15 | SEDEEHARRVLEEMIDARLTGDEDKYETLLDPNVRFHQGEWSFHGMEELSRIVHHEARRIDHHEVRLKELRVVNGRVHSRTLLKLDFNGVEYRLKIELIITKVDGRWLLKEVRVR | 1.25
16 | SEDEEHDHKLARWILELLHTGDEETFLDLMDPNTRVIIHVGDKRIHNHGREVVKRIQEQLEEDWGVSRVEIHIRRMTIIDGRVRIDGLLEYDGRRHEIHMIFVIINGKIHSEEQHIH | 1.46
17 | SEDEEHLKELSEMLIKNWLTGDEKKWDRLADPHAKLRINVNGRDRRRVGMENVHRALHHLFHELRIKHLRDKDSNLINGVSHIEGESTILVGDKEIDTRIVIHLLIIDGRLEEERIVIE | 0.178
18 | SEDEEHSRIFVQLFQRAVETGDEDRMLQLMDPDARVHIGDKTYHGMFQFVRWLHDQLKRFKNIRIEWRLTEIDVFENHIIIKGELRLKAEGVDHIHNVIIYVNKINGRWIVHHMEIR | 1.52
19 | SEDEEHWRKTINLLIIAIRTGNEDLFWKLLDPNTRFEVDIGDKMIDLHGREKVAEWLHRFIHKIPNLKIHIREIEFNENETRIHGETHFDGKTRTVEIIIELVDGRMKEFIFIVK | 2.16
20 | SEDEEIAHHVVNLIMKIIRTGDEDNFKQLFDPHTRFTVGDKHHIGRETVIEFFRRWEEFYPNIQLELRLRDVKAYGDKVHVETEVIIRVGDKDLRFETTVYILKYNGRWFLKQEQFR | 0.769
21 | SEDEEIAKEASEVFSDVLLTGNEDLFKEMIDPNVRVIVDGQDHIGRERALEFLIIWLERRGVEFKRVRVTRHRVIDGRVQMHYEVDSVVNGRRTNDSMELHSDKVNGRWIIRIIKFR | 2.38
22 | SEDEEIARRYLEFFLHILRTGDFEEMLRLLDPHVRTHVDGREKHGRENVTTFFMRWWEDYGFDHVTLEDFRVHIYGEKIHIKIDGYFHFNGRSVDVKIHVIAKKINGRWLLHEMHFEVR | 1.26
23 | SEDEEIFRIALHILIYTMKTGDEKMLEENFDPNTKIRVGDKEFVGREELRHWFEHLRPKDFKLRDISTQGEKIRIIGHSIGEVDGREVRYDVEMDLHKVDGRWRMTHERIH | 1.16
24 | SEDEEIHRKMFEDILHALRTGDWRELKHNLDPNVRLEVDGREIHGWEEVVKFLHEARVEHIEMRIRHVEFQGEKIISHRHMIFHKDVNGVRVDQRHDFTTIILKVNGRWRYHSIKID | 1.36
25 | SEDEEILREILEETNKALHTGDENHIRHLLDPHVRWHVGDKTIIGRDLLVDILRRMGVKHHEIRLRDMDHVGEKIRLEGELIIRYGDKTETHDVTFVLIKFDGRWHIEEYIHG | 0.866

Row | Sequence | protease stability score
26 | SEDEEIMKDLLELFFEAMKTGDEDTLRHLFDPNARFVIGDKLLHGREEYIRYLQEWRVEIEHFNIRRLELVDGRIHLEGHMHLHVQYGDKHERRTHHLEWEIIKINGRWIFRSVRIN | 1.48
27 | SEDEEIMQRLLEELIEALTTGDEDFFTELVDPHARTEFDGKVMHGRERLKYTIELFGVKHVEFRVEVKRISVFDGRILSDTHLELIIDVDGRSVIIRRHTELRVDKVDGRWFNTEHRIE | 0.183
28 | SEDEEIQKKFWEEFMKALHTGDWHTLEKLLDPHVRYLVGEKHVHGRKKLEMEIRHLGVTNIEMHLHIESEERQGNKIILNGEFRRRINGVEIKTRAILILIKIDGRWVIDTEFIE | 2.05
29 | SEDEEISERALRHVYKHLKTGDEDNFQKNFDPHVRFEAENVEFHGREASEHLSKRIDVIHRIIIRHHTIYNGVIVIHGEVDGEFNGKRDRDIVTIYYVKVNGQWQIRELKIG | 0.891
30 | SEDEEISKKIIERILETMRTGDEDIMEHLVDPDAKFHDEDHHDHGREAFRWWSEFVKRIAGHDKVEIRQQHVKFQGNKVILHTIVIQGNKIYELIIVMEKFDGRWSISTVHIR | 1.43
31 | SEDEEIVHLAIEMYLESIRTGDWKLWEKLIDPDVRLEVNGVEFHGMEEFLKFEREINKRVDHVEVRLRDTRLVNGQVNLNTELINRYDGRTIITETTYVAIKVDGKWYIHEYRIE | 1.14
32 | SEDEEIVKKMSKEELEFWRTGNEHELSKLFDPDVLLFVGEKIFHGREVFKHFKERVDHFHEFRDKHIQVIDGRIHIDSEVNSRFNGRQLSEDVRIQALKFDGRWHYKSIHML | 0.336
33 | SEDEEIVRHFLEIWIKILKTGDWHSMERLVDPHAKYENEHEVDHGRDSARRFVDELRVTEFRVESVKTQGDKATVHTRMVVHFNGKRIDTETRLHIHKVDGRWVVEIIIVN | 1.43
34 | SEDEEIWRRYAKEWYHNWSTGNFDRFKQLMDPDARFIYGDKELVGREEVLRRIRHLLEHLRFKRSEIKREHVVNGVLHLDVHEDGEQGDKSRRSDVEIILYVINGRLHTVEIRIE | 1.61
35 | SEDEEKAERLSRKVVHDLLTGDFKSLLEMFDPNVRVNINGVNNHGRHFFWHELYDELRRLGVDKIEVDLRSLQVYGDKVVLEMELRVNGKKITVEIHMKKVDGRWHIKEVTHE | 1.04
36 | SEDEEKASEVARRFVRSLATGDFDTLTRLMDPNYKHVYGDKEFVGREVIREHLEELRLHFEDNKVKHVRVIGDKIDTDMEVRFTVEFDGVRVHHEMKVEFRILKINGRWFLEFTIIR | 0.337
37 | SEDEEKATEFFRLLVDNWLTGDEENVERLLDPRVRVLVGDKMIHGRHLSARLESEFLKRIPNLRIRFHLHDVRTYGDKAHLDIIIDIHFNGVDIHIESELVVVKIDGRWLFKEERRK | 0.276
38 | SEDEEKATEMIEQLSRAILTGDEHTLHKLLDPRTRIVVNGRRIHGRELWLKFFRELRFHSDDMHIHSQEVQGDKAFFDVHWLGTRNINGVKEHSHTKTEVILLKYNGKWIVEELRYE | 2.17
39 | SEDEEKLQHMTHLFIHLEITGDEKLWTELADPNVRLDINGVEYHGREHVLRSWVELGIKVMRLHRRTAQGDKMHLDGTIDFNGRRYRIHVDVKIIDGKLKDTKQHIE | 2.17
40 | SEDEEKSHRFRRELLESLFTGDFDRFKELADPHVKVDINGRDIHGMELLVRIWRREEKEAGVNYTKDHDLKDHDIINGRAKIDIRVHGIFNGREQTVEVYIFSLKVDGRWILTFMKIN | 1.45
41 | SEDEEKSKRDAQHWFNNWLTGDWRRTLELADPHARIDINGKELHGMHESLELLTRLIEKLGVDHIEMKKSDVVGDKMHIHGHLDIDGQKRDLTIFLLIIDGRLKHSQFELT | 0.165
42 | SEDEEKTRKFIELFLYLWVTGDEDSLSELLDPNVRAEVNGKSAHGRDEVSKLSDVFMKELGVKHTRQTTQHRYEIQGDKLKSHLTIDIEVDGQNVKEFVVIVVEKINGRWIIRHIRFE | 1.1
43 | SEDEEKVFEHLQRITESFVTGDEDSFRHLLDPNVLFLINGRIFHGWEALHWELRRYDHHEVRVHVHHIDFINGRARSDIRLDLHLNFNGKQIDIHTETRVHAEKINGRWRLKRIDIE | 0.811
44 | SEDEELAESFSRLFFEAEETGDEESLLEMADPNVRVHIDGREIHGREEWIKHLRTFGVERIRIHMRHVEIQGDKLRLDLIVHQGDKTVRIEITIKKVDGRWVVHSIHWS | 0.868
45 | SEDEELAKEFAETMLHWEITGNEEAIRRNMDPNTKLDINGQHYIGRDDVLRVWHEIKKRLGVDHLEIHHIRVSVIGDKIRIEIDGHIRVNGREIETHIVIITEKINGKWIIRSMRYEFK | 1.24
46 | SEDEELAKRIAKLWIELHLTGNEDTIKQLMDPRVLVRIHINGVDIHLHGREHVIRHHRETMKHLGWSKVHLELKDSKFIGEYLHMDVRMNVNGQEHHVELEIIVINGRMKEIRINIE | 2.02
47 | SEDEELAQTFLELWVHFLRTGDESMLEQYIDPHARFKVGDKEDHGMKVFKDLLHHIRIEDFRVHHVEIRIVGEWIEIRMDITLHGRVDGVRDTKRVHVHINAEKYNGRWRIKELEIRHR | 1.74
48 | SEDEELARIIMHLLEHATKTGDERILRKLLDPHVKIRVNGKDLIGWEEEHRRHEKLGADHLHLELIFKDWEFVGDYIKVHGEMRVRVNQGDKTDERNYEVRFYLLKVNGRWILESIQIH | 2.63
49 | SEDEELEKVFLRILKEILTTGDEDTLRFLLDPNARMHVGDKELHGWSNVYEQINQLRIKDYELRDFKRVGDKVDFDGRNHGHFNGRDVEHRARLIIQKIDGRWFIHANIIE | 0.626
50 | SEDEELFKRAIEKLIHDLLTGNFEMLEHLLDPHTRVDFNGKIMHGREFVEDIRERFPNLKLELRIDDSSVINGRANIIGTLHFNVNGKFSTHEVHYHVNKFNGKWYIEEVRIK | 1.32
